This passage reports amyloid nucleation score results from the supplement of paper PMC12042874.

± gives the uncertainty stated by the source.

This series in a line: amyloid nucleation score (Sup35N fusion, yeast selection) (log enrichment); library NNK3; higher = more nucleation; inactive = no reads after selection. A digest of the protocol: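 Psi-negative yeast expressed Sup35N fused to peptides of 20 random codons. They were induced 24 hours with 100 μM copper sulfate, grown 7 days at 30°C without adenine and uracil, and their plasmid inserts from input and output were Illumina-sequenced. The nucleation score is the DiMSum log enrichment of output over input reads, centred on the mode score of non-aggregating sequences. Sequences with under 100 input reads were excluded.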
With LWKFSILAYRRFILFKLQMN, the amyloid nucleation score entry is “inactive”.
In the case of LWMFDYKPRLVCQKSV, the amyloid nucleation score entry was “inactive”.
Under LWSCPTDFRMCSVWLTLRVS stands “inactive”; under LWVAVYMFGTCWMRDEVDDV, “inactive”.
Regarding LWVCNRGGTPTSVSSESRRE, the amyloid nucleation score was -0.187 ± 1.
Under LWYTSSSRGWPISLSSMW stands “inactive”; under LWYWVELLCCTGGSRA, 2.02 ± 0.086.
Under LYAFICTTYTCVVN stands “inactive”; under LYCRLCVSIFM, -0.02 ± 1.1.
Under LYDCSINKQG stands “inactive”; under LYDDHFYDWQGYVRRRILDS, “inactive”.
LYDLNLSDLMNCRYTIRGWF: the amyloid nucleation score entry was “inactive”.
Under LYEGD stands “inactive”.
Under LYETSRSFPH stands “inactive”; under LYFILLAHLFSCNNPVSKDP, 1.4 ± 0.13; under LYGIFHRYTNFCSSVLCQVF, 1.66 ± 0.12.
LYGLLSCSERVVKLWFWSWV: the amyloid nucleation score entry was “inactive”.
Under LYHPGALVHQQIDS stands “inactive”.
On to LYHTLKTHVKIFPCHSTDAP, for which the amyloid nucleation score entry was “inactive”.
Under LYIIFERD stands “inactive”; under LYKGYYVLMLEWARDKIHSA, “inactive”; under LYLVMSYV, “inactive”.
The same measure for LYLYYSSTVSLVKYSNEVNC: “inactive”; for LYMRLIGIRRAMHIYPPLKS: “inactive”; for LYPMGFQ: “inactive”.
The same measure for LYSPYLGCDNGATQFWSGTT: 0.226 ± 0.88; for LYSSLCRGWLCRISISTRAP: “inactive”.
Regarding LYVLSGVGICIRGDRLSC, the amyloid nucleation score was 0.535 ± 0.36.
The same measure for LYVVWYSHPWTEYFACSLVA: “inactive”.
As for LYVWLAWYWVYPINHALVVC, the amyloid nucleation score result is “inactive”.
LYYSWKKEYQFIWVVHTFAK: the amyloid nucleation score result is “inactive”.
The same measure for MAAFVCSFEFSLGSTCSMGG: “inactive”.
MAIFKLFVPFIFLIEFCYMV: the amyloid nucleation score result is “inactive”.
The same measure for MAPPNIWFQCQ: “inactive”; for MAWGLVNMRMSLSAKYQGAL: “inactive”.
In turn, MCAHVNVMRNSFYRRNAPNY showed an amyloid nucleation score of 0.603 ± 0.16.
MCEMVFTWDSWLLRRIRQDW returned an amyloid nucleation score of 1.5 ± 0.087.
Turning to MCFKTEYSRSPGYIAN, the amyloid nucleation score result is “inactive”.
The same measure for MCGCARLFVSLSATAKTNP: -0.003 ± 1.1; for MCGLVTFWRALRGNRGRY: “inactive”; for MCGQE: “inactive”.
The same measure for MCRLDA: 2.38 ± 0.073; for MCRMLFISGIQNCDPDVIMH: 1.15 ± 0.12.
The same measure for MCSETWIYALSICDNLCRD: 1.29 ± 0.16.
Consider MCSRCVAKLATTPRLGFNDS, for which the amyloid nucleation score result is “inactive”.
Under MDGPGVTFCPEVLDKWDGSI stands -0.205 ± 1.4; under MEFHYWTGVCQVSK, “inactive”.
Under MEYWYYDMD stands “inactive”; under MFCMYTRDREIYLVETLLYV, “inactive”; under MFKNILCVHVLTSAGT, “inactive”.
Take MFLFKVTDTE: the amyloid nucleation score turned out to be 1.88 ± 0.098.
The same measure for MFQFVFSVQMSGSAFRMFMK: “inactive”.
The same measure for MFRDIWLFGPISWIYECCRS: 2.36 ± 0.091; for MFSCWYIISWCIEVHDGVKI: “inactive”.
Under MGGVCMSMS stands “inactive”; under MGNLVNSNVGSTLSKKIRND, 0.351 ± 0.35.
For the substance MGQRLLLVSANAWD, the amyloid nucleation score result is “inactive”.
MGTVVTMSMRLSNSVWGVGH came in with an amyloid nucleation score of 1.28 ± 0.14.
The same measure for MGVVNFVITGNSYCAKVMLY: “inactive”; for MGYCLGNDGSIKALFLVVNV: “inactive”.
Under MHSTVVEHLLWLTFTPGYKL stands “inactive”; under MICSLTSHRKRN, “inactive”.
The same measure for MIFNHMNKL: “inactive”.
Turning to MIFNVDGLDLVPDKVRYYRD, the amyloid nucleation score result was “inactive”.
For the substance MIGNITMGLMSLDSGKRSVN, the amyloid nucleation score entry was “inactive”.
For MIIAFFCDYNGVEG, the amyloid nucleation score result is “inactive”.
For MILILY, the amyloid nucleation score result was “inactive”.
The same measure for MIMYIGVCVSVGLFEDYAYR: 0.044 ± 0.49; for MINSCFK: “inactive”; for MINWHSRMSSEG: “inactive”.
Consider MITLDCLNNNI, for which the amyloid nucleation score result was “inactive”.
Turning to MIVNNELCTNLPYLSGAVNR, the amyloid nucleation score entry was “inactive”.
On to MKLDICWLRLSRCYVVVVWV, for which the amyloid nucleation score result was “inactive”.
In the case of MKLINRDFSL, the amyloid nucleation score entry is “inactive”.
The same measure for MKVLYDKVKSVTASIELWFW: “inactive”.
The same measure for MLCLWFNEFHDVCPT: “inactive”; for MLCTTLRNYMTSSICFIRYQ: “inactive”.
MLHFG: the amyloid nucleation score result was “inactive”.
For MLSSCRVFRLFCFNCVTLNR, the amyloid nucleation score was 0.816 ± 0.16.
Take MLSYYRFWCPVGRVVMMSFW: the amyloid nucleation score result is “inactive”.
The same measure for MLWYLESWLTLHGTVECNVW: “inactive”.
The substance MMFVGYLSCFSS had an amyloid nucleation score of 2.38 ± 0.059.
The same measure for MMGIGVACYVKCGFFVYNWG: “inactive”; for MMNILILCVKGMHFGRHKYV: “inactive”; for MMNVWLAFAPGML: 0.9 ± 0.14.
In the case of MMRSVHFFRCRQTHENLLMC, the amyloid nucleation score was -0.207 ± 0.66.
Regarding MMTCF, the amyloid nucleation score entry was “inactive”.
Consider MNNCTDLYLLVNPRIRFGVM, for which the amyloid nucleation score result was “inactive”.
The same measure for MNSVHYNDHPHDAVKFTISI: “inactive”; for MNVFVAQSLRRVHCAHELN: 0.233 ± 0.81; for MNYWHNYFSLYDHLLMSKCC: “inactive”.
Under MPCLYALLYG stands “inactive”.
MPSLRRS: the amyloid nucleation score entry was “inactive”.
As for MPWMVATSNM, the amyloid nucleation score result is “inactive”.
Under MQAQRKYMSMRNRYQVAKVE stands “inactive”.
Under MQICSCYRFSD stands 2.45 ± 0.071.
Consider MQSAAM, for which the amyloid nucleation score result is “inactive”.
The same measure for MRCQNSCRHS: “inactive”.
